The source of these data is patent US20250115680A1 (PROFOUNDBIO US, published 2025).

The term EC50 denotes the concentration needed to bring the measured effect to its halfway point.

The target in assay [1] is T1, human PTK7 on the surface of PTK7-expressing tumor cell lines (human, UniProt Q13308 31-1070).
T1 construct: whole, on cells
T1 sequence (looked up): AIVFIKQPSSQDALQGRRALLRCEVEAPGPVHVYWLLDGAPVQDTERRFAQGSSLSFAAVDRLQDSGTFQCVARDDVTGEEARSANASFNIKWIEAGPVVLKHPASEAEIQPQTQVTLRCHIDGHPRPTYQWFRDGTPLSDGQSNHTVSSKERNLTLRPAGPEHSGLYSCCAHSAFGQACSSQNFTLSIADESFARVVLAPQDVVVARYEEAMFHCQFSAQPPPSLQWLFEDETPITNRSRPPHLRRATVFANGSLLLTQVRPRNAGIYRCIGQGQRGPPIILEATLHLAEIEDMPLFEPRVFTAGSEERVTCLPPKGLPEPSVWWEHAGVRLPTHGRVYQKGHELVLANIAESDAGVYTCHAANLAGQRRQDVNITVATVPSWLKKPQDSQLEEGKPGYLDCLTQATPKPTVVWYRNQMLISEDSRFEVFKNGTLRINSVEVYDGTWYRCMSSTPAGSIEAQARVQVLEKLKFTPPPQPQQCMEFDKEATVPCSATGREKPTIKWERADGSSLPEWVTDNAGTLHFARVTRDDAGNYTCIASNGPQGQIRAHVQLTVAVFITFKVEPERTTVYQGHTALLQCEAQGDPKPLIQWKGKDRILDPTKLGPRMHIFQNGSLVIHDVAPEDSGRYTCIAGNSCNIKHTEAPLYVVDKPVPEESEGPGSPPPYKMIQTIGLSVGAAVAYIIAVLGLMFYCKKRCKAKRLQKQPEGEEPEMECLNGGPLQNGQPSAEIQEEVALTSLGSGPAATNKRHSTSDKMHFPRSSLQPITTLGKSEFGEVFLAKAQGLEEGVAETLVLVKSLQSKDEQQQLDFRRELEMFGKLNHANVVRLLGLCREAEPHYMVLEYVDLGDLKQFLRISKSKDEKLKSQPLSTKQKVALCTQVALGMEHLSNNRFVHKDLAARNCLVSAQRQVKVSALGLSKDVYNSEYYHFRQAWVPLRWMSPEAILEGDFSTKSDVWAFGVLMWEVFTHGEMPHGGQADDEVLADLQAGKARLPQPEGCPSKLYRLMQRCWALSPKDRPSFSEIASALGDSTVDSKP
Briefly: flow cytometry on MDA-MB-468 cells, PE anti-human Fc detection, MFI(PE). On the technique in general: A flow cytometer gives signals particle by particle.

In assay [2] the target is T1, human PTK7 on the surface of …. Kind of assay: flow cytometry on MDA-MB-453 cells, PE anti-human Fc detection, MFI(PE).
The target of assay [3] is T2, human PTK-7 recombinant protein (human, UniProt Q13308 31-704, limits assumed).
T2 construct: also called human PTK7 protein
T2 sequence (looked up): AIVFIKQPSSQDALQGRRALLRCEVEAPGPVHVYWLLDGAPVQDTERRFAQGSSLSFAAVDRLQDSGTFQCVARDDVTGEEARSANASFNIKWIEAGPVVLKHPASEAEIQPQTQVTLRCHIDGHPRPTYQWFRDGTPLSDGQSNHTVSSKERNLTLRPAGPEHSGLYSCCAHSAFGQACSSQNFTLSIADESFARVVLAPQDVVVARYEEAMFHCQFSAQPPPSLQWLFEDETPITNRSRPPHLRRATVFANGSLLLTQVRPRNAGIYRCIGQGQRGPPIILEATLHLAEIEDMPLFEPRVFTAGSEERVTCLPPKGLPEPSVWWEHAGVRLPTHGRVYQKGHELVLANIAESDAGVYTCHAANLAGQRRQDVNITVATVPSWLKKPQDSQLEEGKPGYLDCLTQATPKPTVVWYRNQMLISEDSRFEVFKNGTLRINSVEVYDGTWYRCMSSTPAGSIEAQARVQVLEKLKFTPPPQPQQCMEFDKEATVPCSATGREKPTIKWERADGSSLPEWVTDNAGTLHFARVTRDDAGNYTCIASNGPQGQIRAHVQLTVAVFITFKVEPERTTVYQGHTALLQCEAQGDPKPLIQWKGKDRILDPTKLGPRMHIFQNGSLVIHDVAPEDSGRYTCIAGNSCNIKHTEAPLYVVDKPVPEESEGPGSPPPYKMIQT
Briefly: ELISA, plate coated with 2 ug/mL human PTK-7 recombinant protein, HRP anti-human Fc detection, OD450. The protocol:
(§1) Binding specificity property was tested by ELISA according to a standard protocol. Specifically, 96-well micro-plates were coated with 2 μg/mL human, cynomolgus, mouse, and rat PTK-7 recombinant protein in PBS 100 μL per well, incubated overnight at 4° C. Plates were washed twice by TBS+0.5% Tween20. 200 μL of blocking buffer (2% BSA in PBS) was added to each well and incubated at 37° C. for 2 hours. Plates were washed using the buffer mentioned above. Serially diluted antibodies were added to the ELISA plate with 100 μL per well and incubated for 1 hour at room temperature. Then plates were washed for 3 times. After washing, HRP conjugated anti-human Fc antibody solution (abcam, ab98624, diluted with blocking buffer) was added to the plate with 100 μl per well. The plates were incubated at room temperature for 1 hour and then washed for 3 times. Then TMB solution was added to plates with 100 μl per well, placed at room temperature for 5-15 mins, then the stop solution (2M H₂SO₄) was added with 50 μl per well. Finally, the result was measured by absorbance at A₄₅₀ and A₆₃₀.
Background: ELISA stands for enzyme-linked immunosorbent assay.

For assay [4], the target named is T3, rat PTK-7 recombinant protein (rat, UniProt A0A8I6ALM9 40-713).
T3 construct: also called rat PTK7 protein
Briefly: ELISA, plate-coated rat PTK7 recombinant protein. The protocol: as §1

B1: humanized antibody 2C5 (antibody, V domains shown)
VH: QVQLVQSGAEVKKPGASVKVSCKASGYTFTDYYINWVRQAPGQGLEWMGDINPYSGGPVYNQKFMARVTMTVDKSINTAYMELSRLRSDDTAVYYCARGDYYGSNYNYWGQGTLVTVSS
VL: EIVLTQSPATLSVSPGERATLSCRASQNIGTSIHWYQQKPGQAPRLLIKFASESISGIPARFSGSGSGTEFTLTISSLQSEDIAVYYCQQSNNWPYTFGQGTKLEIK
notes: Only variable regions are tied to 2C5; It was detected with anti-human Fc, so it has a human Fc
As to B1, the half-maximal effective concentration (EC50) was determined as 543 pM in assay [1], 488 pM in assay [2] and 26.7 pM in assay [3].

B2: humanized antibody 13C4 (antibody, V domains shown)
VH: QVQLVESGGGLVKPGGSLRLSCAASGFAFSTYDMFWIRQAPGKGLEWVSTISSGGGYTYYPGSVKGRFTISRDNAKNSLYLQMNSLRAEDTAVYYCVRPLLRDSYFYFDVWGQGTMVTVSS
VL: EIVMTQSPATLSVSPGERATLSCRASSSVSSSYLHWYQQKPGQAPRLLIFRTSNLASGIPARFSGSGSGTEYTLTISSLQSEDAAVYYCQQYSGYPLTFGQGTKLEIK
notes: Only variable regions are tied to 13C4; It was detected with anti-human Fc
Take B2: in assay [4], the binding result is “no binding”. Further, the EC50 in assay [1] worked out at 558 pM; in assay [2] it was 623 pM; in assay [3] it was 22.1 pM.

B3: humanized antibody 2C8 (antibody, V domains shown)
VH: QIQLVQSGAEVKKPGASVKVSCKASGYTFTTYGMSWVRQAPGQGLEWMGWINTHSGVPTYVDEFKGRVTMTLDTSTSTAYMELSSLRSEDTAVYYCARSPFDYGSRGAWFVYWGQGTTVTVSS
VL: DVVMTQSPDSLAVSLGERATINCRSSQSIVHNSGDTYLEWYQQKPGQPPKLLIYKVSNRFPGVPDRFSGSGSGTDFTLTISSLQAEDLAVYYCFQGSHVPWTFGGGTKVEIK
notes: Only variable regions are tied to 2C8 by name; It was detected with anti-human Fc
B3: in assay [4], the binding result is given as “no binding”. In addition, the concentration for a half-maximal effect (EC50) came to 481 pM in assay [1], 339 pM in assay [2] and 31.7 pM in assay [3].
